BRET50 and decrease of BRET50 against the wild-type TM homodimer data for five molecules are collected here from paper PMC10216903, “Implication of the Transmembrane Domain in the Interleukin 10 Receptor Platform Oligomerisation” (Cells, 2023).

B1: IL-10Rβ, full-length subunit of the interleukin 10 receptor (receptor, UniProt Q61190 20-349, looked up)
chain: MIPPPEKVRMNSVNFKNILQWEVPAFPKTNLTFTAQYESYRSFQDHCKRTASTQCDFSHLSKYGDYTVRVRAELADEHSEWVNVTFCPVEDTIIGPPEMQIESLAESLHLRFSAPQIENEPETWTLKNIYDSWAYRVQYWKNGTNEKFQVVSPYDSEVLRNLEPWTTYCIQVQGFLLDQNRTGEWSEPICERTGNDEITPSWIVAIILIVSVLVVFLFLLGCFVVLWLIYKKTKHTFRSGTSLPQHLKEFLGHPHHSTFLLFSFPPPEEAEVFDKLSIISEESEGSKQSPEDNCASEPPSDPGPRELESKDEAPSPPHDDPKLLTSTSEV
notes: Interleukin 10 receptor subunit beta, full length; One tag per copy: Rluc fusion as donor, eYFP fusion as acceptor; also called IL-10Rβ_FL; full-length IL-10Rβ; source: HEK293, transfected, in living cells
B2: IL-10Rα, full-length subunit of the interleukin 10 receptor (receptor, UniProt Q61727 17-575, looked up)
chain: LEFIAYGTELPSPSYVWFEARFFQHILHWKPIPNQSESTYYEVALKQYGNSTWNDIHICRKAQALSCDLTTFTLDLYHRSYGYRARVRAVDNSQYSNWTTTETRFTVDEVILTVDSVTLKAMDGIIYGTIHPPRPTITPAGDEYEQVFKDLRVYKISIRKFSELKNATKRVKQETFTLTVPIGVRKFCVKVLPRLESRINKAEWSEEQCLLITTEQYFTVTNLSILVISMLLFCGILVCLVLQWYIRHPGKLPTVLVFKKPHDFFPANPLCPETPDAIHIVDLEVFPKVSLELRDSVLHGSTDSGFGSGKPSLQTEESQFLLPGSHPQIQGTLGKEESPGLQATCGDNTDSGICLQEPGLHSSMGPAWKQQLGYTHQDQDDSDVNLVQNSPGQPKYTQDASALGHVCLLEPKAPEEKDQVMVTFQGYQKQTRWKAEAAGPAECLDEEIPLTDAFDPELGVHLQDDLAWPPPALAAGYLKQESQGMASAPPGTPSRQWNQLTEEWSLLGVVSCEDLSIESWRFAHKLDPLDCGAAPGGLLDSLGSNLVTLPLISSLQVEE
notes: Interleukin 10 receptor subunit alpha, full length; One tag per copy: Rluc fusion as donor, eYFP fusion as acceptor (plasmids pRL-CMV and pEYFP-N1); also called IL-10Rα_FL; full-length IL-10Rα; source: HEK293, transfected, in living cells

The target in data set [1] is IL-10Rβ, full-length subunit of the interleukin 10 receptor (UniProt Q61190). The experiment in a line: FRET or BRET; BRET saturation assay in living HEK293 cells; full-length Rluc-tagged receptor (plasmid constant, 0.75 ng/mL) with increasing eYFP-tagged TM sequence plasmid; HBSS, coelenterazine H 5 µM, 37 °C. On the technique in general: Bioluminescence resonance energy transfer reports proximity on the nanometre scale.

Data set [2] concerns the target IL-10Rα, full-length subunit of the interleukin 10 receptor (UniProt Q61727). Described as above.
The target in a further data set is TM sequence of IL-10Rα. The experiment in a line: FRET or BRET; BRET saturation assay in living HEK293 cells; TM sequence fused to Rluc (plasmid constant, 0.75 ng/mL) with increasing eYFP-fused TM sequence plasmid, wild type or mutant; HBSS, coelenterazine H 5 µM, 37 °C.
The next data set has as its target TM sequence of IL-10Rβ. The data set is described as above.
The target of data set [3] is B2. The experiment in a line: FRET or BRET; BRET saturation assay in living HEK293 cells; full-length Rluc donor (plasmid constant, 0.75 ng/mL) with increasing full-length eYFP acceptor plasmid; HBSS, coelenterazine H 5 µM, 37 °C. Conditions: partners not purified.
Data set [4] concerns the molecule itself. The description is as above.
The target of data set [5] is B1. The description is as above. Conditions: partners not purified.

As to “TM sequence of IL-10Rα (domain or fragment)”, the BRET50 in data set [1] turned out to be 22 mBu; in data set [2] it was 28 mBu; with TM sequence of IL-10Rα, 190 mBu; with TM sequence of IL-10Rβ, 109 mBu.

“TM sequence of IL-10Rα with leucine 248 substituted by glycine (domain or fragment)” came in with a decrease of BRET50 against the wild-type TM homodimer with TM sequence of IL-10Rα of 27 % decrease.

As to “TM sequence of IL-10Rβ (domain or fragment)”, the BRET50 in data set [1] is 35 mBu; in data set [2] it was 35 mBu; in the data set with TM sequence of IL-10Rα, 141 mBu; with TM sequence of IL-10Rβ it was 78 mBu.

Consider B1, for which the BRET50 in data set [3] worked out at 86 mBu; in data set [4] it was 152 mBu.

Take B2: the BRET50 in data set [5] and in data set [4] was 28 mBu in each case.
